These are literature values, as cited in article PMC12060137.

The data set has as its target TfR1 (Homo sapiens) (UniProt P02786).

Chain of TfR1 (Homo sapiens) (P02786 89-760): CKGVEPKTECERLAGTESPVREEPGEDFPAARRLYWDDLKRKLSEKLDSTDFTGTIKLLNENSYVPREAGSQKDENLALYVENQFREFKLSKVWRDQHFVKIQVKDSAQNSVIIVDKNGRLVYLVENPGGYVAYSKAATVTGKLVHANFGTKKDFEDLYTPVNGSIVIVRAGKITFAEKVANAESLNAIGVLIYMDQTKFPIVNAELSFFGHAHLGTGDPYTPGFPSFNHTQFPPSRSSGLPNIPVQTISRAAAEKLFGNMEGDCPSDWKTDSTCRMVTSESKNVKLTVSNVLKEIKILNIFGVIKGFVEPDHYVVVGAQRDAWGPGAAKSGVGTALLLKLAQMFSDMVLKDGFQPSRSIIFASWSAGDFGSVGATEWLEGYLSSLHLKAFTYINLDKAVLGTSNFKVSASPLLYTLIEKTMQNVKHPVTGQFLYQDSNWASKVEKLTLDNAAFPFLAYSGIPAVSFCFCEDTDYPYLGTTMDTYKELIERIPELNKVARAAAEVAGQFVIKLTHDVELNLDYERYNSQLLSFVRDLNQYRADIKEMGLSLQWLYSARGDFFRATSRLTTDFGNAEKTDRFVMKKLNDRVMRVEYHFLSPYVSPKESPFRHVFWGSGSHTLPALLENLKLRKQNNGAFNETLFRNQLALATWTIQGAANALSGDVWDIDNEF
Chain of HFt-W4 ferritin nanoparticle (P02794 2-183): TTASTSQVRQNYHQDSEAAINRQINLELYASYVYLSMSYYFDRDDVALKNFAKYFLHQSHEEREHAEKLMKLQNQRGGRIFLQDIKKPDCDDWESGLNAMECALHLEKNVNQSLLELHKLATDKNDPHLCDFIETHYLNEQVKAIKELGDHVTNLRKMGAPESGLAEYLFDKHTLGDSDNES

For “HFt-W4 ferritin nanoparticle (from UniProt P02794)”, the Kd was 25 nM.
